Frequency of MyoG+ cells (immunofluorescence) in C2C12 myotubes co-expressing Phb2 FL and mDia1ΔN3 (mDia1ΔN3 alone: 15%) data for one substance are collected here from paper PMC6549159.

The experiment concerns the target GFP-tagged mDia1ΔN3 (mouse) (UniProt O08808).
Chain of UniProt O08808 (O08808 543-1192, stated change not applied): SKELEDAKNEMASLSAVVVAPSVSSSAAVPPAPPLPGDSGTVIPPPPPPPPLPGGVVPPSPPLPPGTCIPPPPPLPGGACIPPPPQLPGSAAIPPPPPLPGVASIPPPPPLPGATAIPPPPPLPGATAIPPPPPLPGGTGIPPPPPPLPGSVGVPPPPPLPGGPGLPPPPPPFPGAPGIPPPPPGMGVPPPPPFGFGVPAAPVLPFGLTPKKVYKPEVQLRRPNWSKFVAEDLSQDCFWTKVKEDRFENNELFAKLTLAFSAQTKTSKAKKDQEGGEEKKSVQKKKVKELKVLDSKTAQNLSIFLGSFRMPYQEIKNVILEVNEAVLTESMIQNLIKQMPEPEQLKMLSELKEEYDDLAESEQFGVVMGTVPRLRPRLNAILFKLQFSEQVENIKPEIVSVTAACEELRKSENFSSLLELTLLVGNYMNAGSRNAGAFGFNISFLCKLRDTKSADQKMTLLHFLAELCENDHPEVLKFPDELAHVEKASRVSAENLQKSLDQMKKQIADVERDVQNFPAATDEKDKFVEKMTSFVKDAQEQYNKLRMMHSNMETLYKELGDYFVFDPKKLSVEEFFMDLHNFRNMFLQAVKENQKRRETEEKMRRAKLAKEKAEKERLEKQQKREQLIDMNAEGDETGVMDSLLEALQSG

“Flag-tagged mouse Phb2 FL (from UniProt O35129 1-299) (natural protein)”: the frequency of MyoG+ cells (immunofluorescence) in C2C12 myotubes co-expressing Phb2 FL and mDia1ΔN3 (mDia1ΔN3 alone: 15%) came out at 53%.
